Holding throughout (assay): competition
Common to all, as to details: modification not given

Assay [1] deals with HLA-DR DRB1*0701 on fixed MOU (MANN) cells (human).
Assay [2] deals with HLA-DR DRB1*0101 on fixed HOM-2 cells (human).
The target in assay [3] is HLA-DR DRB1*0401 on fixed WT-51 cells (human).

For AEIMRSFSLSTNLQE [49], the IC50 in assay [1] and in assay [2] was 15 µM each time. As to SPCAWEVVRAEIMRS [46], the IC50 in assay [1] amounted to 8 µM. Regarding SILAVRKYFQRITLY [39], the IC50 in assay [1] was 60 µM; in assay [2], 100 µM. As for QEEFGNQFQKAETIP [14], the IC50 in assay [1] is more than 500 µM. As to GFPQEEFGNQFQKAE [13], the IC50 in assay [1] is more than 500 µM. For the molecule KEDSILAVRKYFQRI [38], the concentration for half-maximal inhibition (IC50) in assay [1] and in assay [2] was more than 500 µM throughout.

In assay [3], QQIFNLFSTKDSSAA [21] yielded an IC50 of 70 µM. For TETPLMKEDSILAVR [36], the IC50 was more than 500 µM in assay [1] and 25 µM in assay [2]. Regarding KDRHDFGFPQEEFGN [11], in assay [1], the IC50 was more than 500 µM. Consider YTELYQQLNDLEACV [29], for which, in assay [3], the IC50 worked out at 5 µM. The molecule SLFSCLKDRHDFGFP [9] came in with an IC50 in assay [1] of more than 500 µM. In the case of IQGVGVTETPLMKED [34], the IC50 in assay [1] and in assay [2] was more than 500 µM throughout.

With PLMKEDSILAVRKYF [37], the IC50 was more than 500 µM in assay [1] and 85 µM in assay [2].

The molecule TLYLKEKKYSPCAWE [43] yielded an IC50 in assay [1] of more than 500 µM. Regarding SCLKDRHDFGFPQEE [10], in assay [1], the IC50 is more than 500 µM.

In the case of FGNQFQKAETIPVLH [15], the IC50 in assay [1] amounted to 25 µM. KDSSAAWDETLLDKF [24]: the concentration for half-maximal inhibition (IC50) in assay [3] was found to be 450 µM. In the case of AVRKYFQRITLYLKE [40], the IC50 in assay [1] amounted to 70 µM; in assay [2] it was 95 µM.

On to VGVTETPLMKEDSIL [35], for which the IC50 in assay [1] and in assay [2] was more than 500 µM in each case.

LKEKKYSPCAWEVVR [44] returned an IC50 in assay [1] of more than 500 µM.

In assay [1], KKYSPCAWEVVRAEI [45] came in with an IC50 of 200 µM. Molecule QFQKAETIPVLHEMI [16] registered an IC50 in assay [2] of 350 µM. HDFGFPQEEFGNQFQ [12]: the IC50 in assay [1] is more than 500 µM. Take VVRAEIMRSFSLSTN [48]: the IC50 came out at 7 µM in assay [1] and 25 µM in assay [2]. Molecule FNLFSTKDSSAAWDE [22] came in with an IC50 in assay [3] of more than 500 µM. Consider AQMRRISLFSCLKDR [7], for which the 50% inhibitory concentration (IC50) in assay [2] was found to be 150 µM.

In the case of RRISLFSCLKDRHDF [8], in assay [2], the IC50 was 180 µM.

These data come from US20060062761A1.
